Reference: patent publication US20200199204A1

What was measured:
Assay in all cases: cell-based or functional assay
[1] = biological target: HIV-1 Env of 96ZM651.02 (HIV-1)
[2] = biological target: HIV-1 Env of ZM233.6 (HIV-1)
[3] = biological target: HIV-1 Env of C1080.c3 (HIV-1)
[4] = biological target: HIV-1 Env of CAP210.E8 (HIV-1)
[5] = biological target: HIV-1 Env of WITO.33 (HIV-1)
[6] = biological target: HIV-1 Env of Q168.a2 (HIV-1)
[7] = biological target: HIV-1 Env of ZM53.12 (HIV-1)
[8] = biological target: HIV-1 Env of Q259.d2.17 (HIV-1)
[9] = biological target: HIV-1 Env of TH976.17 (HIV-1)
[10] = biological target: HIV-1 Env of REJO.67 (HIV-1)
[11] = biological target: HIV-1 Env of TRJO.58 (HIV-1)
[12] = biological target: HIV-1 Env of DU422.01 (HIV-1)
[13] = biological target: HIV-1 Env of CAAN.A2 (HIV-1)
[14] = biological target: HIV-1 Env of KER2018.11 (HIV-1)
[15] = biological target: HIV-1 Env of DU172.17 (HIV-1)
[16] = biological target: HIV-1 Env of ZM109.4 (HIV-1)
[17] = biological target: HIV-1 Env of Q842.d12 (HIV-1)
[18] = biological target: HIV-1 Env of Q769.d22 (HIV-1)
[19] = biological target: HIV-1 Env of ZM214.15 (HIV-1)
[20] = biological target: HIV-1 Env of UG037.8 (HIV-1)
[21] = biological target: HIV-1 Env of ZM197.7 (HIV-1)
[22] = biological target: HIV-1 Env of RW020.2 (HIV-1)
[23] = biological target: HIV-1 Env of 0260.v5.c36 (HIV-1)
[24] = biological target: HIV-1 Env of 6405.v4.c34 (HIV-1)
[25] = biological target: HIV-1 Env of CAP256.PI (HIV-1)
[26] = biological target: HIV-1 Env of CAP244.D3 (HIV-1)
[27] = biological target: HIV-1 Env of Q23.17 (HIV-1)
[28] = biological target: HIV-1 Env of QH0692.42 (HIV-1)
[29] = biological target: HIV-1 Env of ZM249.1 (HIV-1)
[30] = biological target: HIV-1 Env of ZM135.10a (HIV-1)
[31] = biological target: HIV-1 Env of CNE3 (HIV-1)
[32] = biological target: HIV-1 Env of CAP45.G3 (HIV-1)
[33] = biological target: HIV-1 Env of 6535.3 (HIV-1)
[34] = biological target: HIV-1 Env of MB201 (HIV-1)
[35] = biological target: HIV-1 Env of TRO.11 (HIV-1)
[36] = biological target: HIV-1 Env of CAP256.SU (HIV-1)
[37] = biological target: HIV-1 Env of RHPA.7 (HIV-1)
[38] = biological target: HIV-1 Env of MB539.2B7 (HIV-1)
[39] = biological target: HIV-1 Env of 191821.E6.1 (HIV-1)
[40] = biological target: HIV-1 Env of 3016.V5.c36 (HIV-1)
[41] = biological target: HIV-1 Env of THRO.18 (HIV-1)
[42] = biological target: HIV-1 Env of CM244.ec1 (HIV-1)
[43] = biological target: HIV-1 Env of SC422.8 (HIV-1)
[44] = biological target: HIV-1 Env of PVO.04 (HIV-1)
[45] = biological target: HIV-1 Env of KER2008.12 (HIV-1)
[46] = biological target: HIV-1 Env of AC10.29 (HIV-1)
[47] = biological target: HIV-1 Env of DU156.12 (HIV-1)
[48] = biological target: HIV-1 Env of Q461.e2 (HIV-1)
[49] = biological target: HIV-1 Env of BG505.w6m (HIV-1)

With CAP256-VRC26.13 (antibody) the IC50 [1] was > 50 µg/mL, the IC50 [2] was > 50 µg/mL and the IC50 [3] was > 50 µg/mL. The IC50 [4] was 0.094 µg/mL, the IC50 [5] was > 50 µg/mL and the IC50 [6] was > 50 µg/mL. For the same substance, the IC50 [7] was 0.039 µg/mL, the IC50 [8] was > 50 µg/mL and the IC50 [9] was > 50 µg/mL. The IC50 [10] was > 50 µg/mL, the IC50 [11] was > 50 µg/mL and the IC50 [12] was > 50 µg/mL. The IC50 [13] was > 50 µg/mL, the IC50 [14] was > 50 µg/mL and the IC50 [15] was > 50 µg/mL. For the same substance, the IC50 [16] was > 50 µg/mL, the IC50 [17] was > 50 µg/mL and the IC50 [18] was > 50 µg/mL. The IC50 [19] was > 50 µg/mL, the IC50 [20] was > 50 µg/mL and the IC50 [21] was > 50 µg/mL. The IC50 [22] was > 50 µg/mL, the IC50 [23] was > 50 µg/mL and the IC50 [24] was > 50 µg/mL. The IC50 [25] was > 50 µg/mL, the IC50 [26] was > 50 µg/mL and the IC50 [27] was > 50 µg/mL. For the same substance, the IC50 [28] was > 50 µg/mL, the IC50 [29] was > 50 µg/mL and the IC50 [30] was > 50 µg/mL. For the same substance, the IC50 [31] was > 50 µg/mL, the IC50 [32] was > 50 µg/mL and the IC50 [33] was > 50 µg/mL. The IC50 [34] was > 50 µg/mL, the IC50 [35] was > 50 µg/mL and the IC50 [36] was 0.019 µg/mL. The IC50 [37] was > 50 µg/mL, the IC50 [38] was > 50 µg/mL and the IC50 [39] was > 50 µg/mL. The IC50 [40] was 3.74 µg/mL, the IC50 [41] was > 50 µg/mL and the IC50 [42] was > 50 µg/mL. The IC50 [43] was > 50 µg/mL, the IC50 [44] was > 50 µg/mL and the IC50 [45] was > 50 µg/mL. For the same substance, the IC50 [46] was > 50 µg/mL, the IC50 [47] was > 50 µg/mL and the IC50 [48] was > 50 µg/mL. For the same substance, the IC50 [49] was > 50 µg/mL.
CAP256-VRC26.14 (antibody) was tested, and the IC50 [1] was > 50 µg/mL, the IC50 [2] was 0.028 µg/mL and the IC50 [3] was 0.779 µg/mL. For the same substance, the IC50 [4] was 0.012 µg/mL, the IC50 [5] was > 50 µg/mL and the IC50 [6] was > 50 µg/mL. The IC50 [7] was 0.006 µg/mL, the IC50 [8] was 2.13 µg/mL and the IC50 [9] was > 50 µg/mL. The IC50 [10] was > 50 µg/mL, the IC50 [11] was > 50 µg/mL and the IC50 [12] was 49 µg/mL. For the same substance, the IC50 [13] was > 50 µg/mL, the IC50 [14] was 0.03 µg/mL and the IC50 [15] was > 50 µg/mL. The IC50 [16] was > 50 µg/mL, the IC50 [17] was > 50 µg/mL and the IC50 [18] was > 50 µg/mL. For the same substance, the IC50 [19] was > 50 µg/mL, the IC50 [20] was > 50 µg/mL and the IC50 [21] was 4.96 µg/mL. The IC50 [22] was > 50 µg/mL, the IC50 [23] was > 50 µg/mL and the IC50 [24] was > 50 µg/mL. The IC50 [25] was > 50 µg/mL, the IC50 [26] was > 50 µg/mL and the IC50 [27] was > 50 µg/mL. For the same substance, the IC50 [28] was > 50 µg/mL, the IC50 [29] was > 50 µg/mL and the IC50 [30] was > 50 µg/mL. The IC50 [31] was > 50 µg/mL, the IC50 [32] was > 50 µg/mL and the IC50 [33] was > 50 µg/mL. For the same substance, the IC50 [34] was > 50 µg/mL, the IC50 [35] was > 50 µg/mL and the IC50 [36] was 0.004 µg/mL. The IC50 [37] was > 50 µg/mL, the IC50 [38] was > 50 µg/mL and the IC50 [39] was 3.36 µg/mL. For the same substance, the IC50 [40] was 0.012 µg/mL, the IC50 [41] was > 50 µg/mL and the IC50 [42] was 6.16 µg/mL. For the same substance, the IC50 [43] was > 50 µg/mL, the IC50 [44] was > 50 µg/mL and the IC50 [45] was > 50 µg/mL. The IC50 [46] was > 50 µg/mL, the IC50 [47] was > 50 µg/mL and the IC50 [48] was > 50 µg/mL. The IC50 [49] was 0.75 µg/mL.
